# Values joined by “and” are separate entries in the source; they are usually repeats but may differ in a detail not shown here. Equal values may be shown once.
# B1: Maltogenic amylase (MAase) ThMA from the Thermus strain (enzyme)
# chain: MRKEAIHHRSTDNFAYAYDSETLHLRLQTKKNDVDHVELLFGDPYEWHDGAWQFQTMPMRKTGSDGLFDYWLAEVKPPYRRLRYGFVLRAGGEKLVYTEKGFYHEAPSDDTAYYFCFPFLHRVDLFQAPDWVKDTVWYQIFPERFANGNPAISPKGARPWGSEDPTPTSFFGGDLQGIIDHLDYLADLGITGIYLTPIFRAPSNHKYDTADYFEIDPHFGDKETLKTLVKRCHEKGIRVMLDAVFNHCGYEFAPFQDVLKNGAASRYKDWFHIREFPLQTEPRPNYDTFAFVPHMPKLNTAHPEVKRYLLDVATYWIREFDIDGWRLDVANEIDHQFWREFRQAVKALKPDVYILGEIWHDAMPWLRGDQFDAVMNYPLADAALRFFAKEDMSASEFADRLMHVLHSYPKQVNEAAFNLLGSHDTPRLLTVCGGDVRKVKLLFLFQLTFTGSPCIYYGDEIGMTGGNDPECRKCMVWDPEKQNKELYEHVKQLIALRKQYRALRRGDVAFLTADDEVNHLVYAKTDGNETVMIIINRSNEAAEIPMPIDARGKWLVNLLTGERFAAEAETLCVSLPPYGFVLYAVESW
# notes: ThMA, maltogenic amylase of a Thermus strain (AAC15072.1); used as the control in analytical ultracentrifugation; the construct is not described
# Biological target: the molecule itself
# Experiment: AUC; sedimentation velocity, 50 mM Na2HPO4-NaH2PO4 buffer pH 7.0, 20 °C, 38,000 rpm, absorbance at 280 nm, c(s) model in SEDFIT; oligomeric state
protein,measurement,value
B1,stoichiometry N,2 and 4

# From article PMC9267027, “Discovery of a New Microbial Origin Cold-Active Neopullulanase Capable for Effective Conversion of Pullulan to Panose” (International Journal of Molecular Sciences, 2022)
